Values of other authors, collected in publication PMC9794804.
pKd: −log10 of the molar value.

Legend:
IL-6R = IL-6R (UniProt P08887)
TREM-1 = TREM-1 (UniProt Q9NP99)
TLR4 = TLR4 (UniProt O00206)
TLR4, sequence (O00206 24-631): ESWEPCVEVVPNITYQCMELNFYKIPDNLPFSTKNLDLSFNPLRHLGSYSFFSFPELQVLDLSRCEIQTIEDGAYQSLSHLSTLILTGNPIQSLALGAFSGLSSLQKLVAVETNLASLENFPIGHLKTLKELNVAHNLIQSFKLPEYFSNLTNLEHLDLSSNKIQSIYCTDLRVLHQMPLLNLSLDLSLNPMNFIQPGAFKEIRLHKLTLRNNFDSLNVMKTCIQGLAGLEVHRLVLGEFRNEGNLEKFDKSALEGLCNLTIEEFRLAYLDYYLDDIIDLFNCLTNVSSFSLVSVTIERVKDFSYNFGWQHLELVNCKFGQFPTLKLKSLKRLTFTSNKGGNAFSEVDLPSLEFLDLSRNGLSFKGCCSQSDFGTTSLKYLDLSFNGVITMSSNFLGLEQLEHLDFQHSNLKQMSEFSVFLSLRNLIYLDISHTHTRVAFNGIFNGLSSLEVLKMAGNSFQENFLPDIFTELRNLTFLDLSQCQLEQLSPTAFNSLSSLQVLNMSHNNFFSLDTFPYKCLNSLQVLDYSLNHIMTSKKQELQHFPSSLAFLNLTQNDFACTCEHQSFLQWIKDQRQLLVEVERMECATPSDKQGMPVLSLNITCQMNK

eCIRP, sequence (Q14011 whole entry): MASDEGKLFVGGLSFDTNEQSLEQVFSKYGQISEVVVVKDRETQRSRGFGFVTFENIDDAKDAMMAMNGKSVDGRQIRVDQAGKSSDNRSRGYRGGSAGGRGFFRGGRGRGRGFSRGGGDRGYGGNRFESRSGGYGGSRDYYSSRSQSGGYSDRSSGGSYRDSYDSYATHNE
IL-6R, sequence (P08887 20-365): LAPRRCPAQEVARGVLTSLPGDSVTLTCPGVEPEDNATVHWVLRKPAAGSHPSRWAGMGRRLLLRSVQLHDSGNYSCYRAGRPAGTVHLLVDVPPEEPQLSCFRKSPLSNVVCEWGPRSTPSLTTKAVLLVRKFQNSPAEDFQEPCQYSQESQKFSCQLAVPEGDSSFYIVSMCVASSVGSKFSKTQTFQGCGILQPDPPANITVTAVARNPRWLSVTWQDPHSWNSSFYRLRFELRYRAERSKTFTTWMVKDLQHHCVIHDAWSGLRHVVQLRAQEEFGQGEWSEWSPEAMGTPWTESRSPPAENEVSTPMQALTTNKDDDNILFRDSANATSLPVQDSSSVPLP
TREM-1, sequence (Q9NP99 21-205): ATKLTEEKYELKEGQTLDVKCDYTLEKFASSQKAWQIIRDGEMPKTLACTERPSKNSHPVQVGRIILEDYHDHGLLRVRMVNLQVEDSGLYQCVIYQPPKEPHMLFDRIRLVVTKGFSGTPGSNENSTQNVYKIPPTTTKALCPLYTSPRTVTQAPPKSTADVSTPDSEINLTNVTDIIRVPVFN

pKd (IL-6R): 7.01
pKd (TREM-1): 6.93
pKd (TLR4): 6.21
Substance: eCIRP (from UniProt Q14011)
